How the values were obtained:
Test in all cases: pull-down binding Z-score (relative to library population); higher = stronger binding
[1] = test system: G-clamp-N3 (biotin conjugate); conditions: RNA library: Library-1 (pre-miRNA loops + repeats)
Procedure, shortened: (§1)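 Biotin-conjugated small molecule (100 pmol) on streptavidin beads was incubated with 1 μg of heat-folded Cy5- or Cy3-end-labelled RNA library in phosphate/NaCl/KCl buffer at 25 °C for 60 min. Following three washes, RNA was eluted with hot SDS and hybridised at 55.5 °C for 20 h to a DNA barcode microarray. The binding value is a Z-score computed from the library mean and standard deviation, after subtraction of beads without compound and averaging of barcoded replicate probes with the highest and lowest excluded.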

[2] = test system: TO-3-N3 (biotin conjugate); conditions: RNA library: Library-2
Procedure, shortened: as §1

[3] = test system: TO-3-N3-2 (biotin conjugate); conditions: RNA library: Library-2
Procedure, shortened: as §1

TO-N3 (biotin conjugate) = conditions: RNA library: Library-2
Procedure, shortened: as §1

[4] = test system: TO-N3-2 (biotin conjugate); conditions: RNA library: Library-2
Procedure, shortened: as §1

Row | Sequence | pull-down binding Z-score [1] | pull-down binding Z-score [2] | pull-down binding Z-score [3] | pull-down binding Z-score (TO-N3 (biotin conjugate)) | pull-down binding Z-score [4]
1 | GGAAAGGGGAUGCAGAGCCCUGCC [hsa-mir-4647] | 1.97 | 1.28 | 0.526 | 1.44 | 1.52
2 | CUGUGCAGAACAUCCGCUCACCUGUACAG [hsa-mir-214] | 0.104 | 0.0427 | -0.43 | 0.0753 | 0.171
3 | AUCUAUUCCAGAAGAU [hsa-mir-4696] | 1.53 | -0.911 | -0.62 | -1.28 | -1.35
4 | AGAUCCUGUCUUUCGUAAUCAGCAGCU [hsa-mir-222] | -0.246 | 0.279 | 0.00116 | 0.344 | 0.228
5 | UGUCAUUACUUUUAACUGUA [hsa-mir-548h-5] | -0.935 | 1.2 | 0.219 | 1.07 | -0.469
6 | AGCUUCUUUAUAAGAAGAGGAAACU [hsa-mir-3923] | -0.169 | 0.147 | 0.00803 | -0.151 | -0.5
7 | GCUUAUUGAUGUAGCCAACAAGC [hsa-mir-3148] | -0.529 | -0.527 | -0.225 | -0.643 | -0.384
8 | CAAUCACAUGUAAUUAGGUGUGAUUG [hsa-mir-510] | 1.4 | -0.789 | -0.773 | -1.09 | -1.29
9 | CUUCUGCUUCCUCUUAGCGCAGGAG [hsa-mir-1914] | -1.66 | -0.591 | -0.325 | -0.751 | -0.409
10 | UGGGCCAAG [hsa-mir-3620] | -0.636 | 0.746 | 0.193 | 0.825 | 0.487
11 | UUUUGCUAUUACUUUUAAAGGCAAAA [hsa-mir-548e] | -0.666 | 0.431 | 0.21 | -0.0747 | -0.684
12 | GACAGGGCAGAGGGUUGCGCCCCCUC [hsa-mir-6511b-1_6511b-2_6511a-2_6511a-3_6511a-1_6511a-4] | 1.05 | 0.412 | 0.284 | 0.754 | 1.23
13 | CUUUCUGUUGUCUAAAAGAAAAGAAAG [hsa-mir-520d] | 0.0447 | -0.444 | -0.331 | -0.415 | -0.127
14 | CUGGGUCCUCUGUGCAGGGUCUUACCCAG [hsa-mir-7850] | -0.833 | -0.3 | -0.415 | -0.253 | 0.337
15 | GAGCUGGGUGGGGUGCCAAGCCU [hsa-mir-6819] | 1.38 | 2.3 | 1.71 | 2.43 | 2.06
16 | CUGCCAUUGAAAGUAAAGGCAA [hsa-mir-548ag-2] | 0.525 | 0.656 | 0.239 | 0.608 | 0.104
17 | GUCCUGCCCUCACUGGGAACCCCCUUCCCUCUGGGUACCAG [hsa-mir-1324] | -0.948 | 1.48 | 0.477 | 1.88 | 1.39
18 | UAAGUGUUAUAGCACUUA [hsa-mir-374a] | -0.753 | -0.901 | -0.541 | -1.38 | -1.79
19 | UUUGCCAGAGCUACAAAGGCAAA [hsa-mir-561] | 0.627 | -0.527 | -0.521 | -0.845 | -0.512

Row | Sequence | pull-down binding Z-score [1] | pull-down binding Z-score [2] | pull-down binding Z-score [3] | pull-down binding Z-score (TO-N3 (biotin conjugate)) | pull-down binding Z-score [4]
20 | GCAGAUAGUGGUCCUCUCCGUGCUACCGC [hsa-mir-106b] | -0.198 | -0.0735 | -0.0832 | 0.316 | 1.16
21 | ACCAAAACACUCAUCGCGG [hsa-mir-1260a] | -0.734 | -0.138 | 0.105 | -0.188 | -0.00378
22 | ACCCAGGACUCUUUCAUGACCA [hsa-mir-665] | -0.54 | -0.0474 | 0.144 | 0.101 | 0.384
23 | UCUGCAGGUUCGCACUGAUGCCUGCUCG [hsa-mir-6726] | 0.44 | 0.0628 | -0.102 | 0.309 | 0.569
24 | CUAGUAUGUCUCAUCCCCUACUAG [hsa-mir-151a] | 0.0263 | -0.144 | -0.201 | -0.343 | 0.072
25 | CCCGGAUACCUCAGAAAUUCGG [hsa-mir-760] | -0.822 | -0.07 | -0.461 | -0.0213 | 0.267
26 | AGGCCGUUGCCAAUCAGAGAACGGCUA [hsa-mir-138-1] | -0.677 | 1.23 | 0.52 | 1.47 | 1.43
27 | UUGUGUAUGUACUUAGCUGUACUAUA [hsa-mir-1244-1_1244-4_1244-2_1244-3] | 0.509 | -0.689 | -0.417 | -0.627 | -0.486
28 | UCCAGUGUGGCUCGGAGGCUGGA [hsa-mir-139] | 3.31 | 0.91 | 0.381 | 1.23 | 1.18
29 | UAGGUGGUCGAAGUCAUCCACA [hsa-mir-7153] | -0.765 | -0.108 | 0.264 | 0.131 | 0.498
30 | UUAUCUGUCACCAGUCAGAUAACUGUCACCAGUCAGUUAA [hsa-mir-4764] | -0.644 | -0.842 | -0.324 | -0.684 | -0.396
31 | AGCUUCUACGUCAUUCAGCACUUGCU [hsa-mir-5706] | -0.819 | -0.62 | -0.211 | -0.601 | -0.31
32 | GUGAGCGCAGGUCUUUGGCAC [hsa-mir-4450] | 2.36 | 0.104 | 0.39 | 0.339 | 0.729
33 | AGUCACUUAGAUUACAUGUCACU [hsa-mir-892c] | -1.24 | 0.00628 | 0.0543 | -0.172 | -0.486
34 | GGUGGCAAUCAAGGUCUAGCCACC [hsa-mir-4733] | 1.02 | 0.369 | 0.265 | 0.287 | 0.228
35 | UCUUGGUGCCACCAUUGAGAACGCCAGGA [hsa-mir-492] | -1.02 | -0.644 | -0.506 | -0.279 | 0.868
36 | AGCCACUGCGGUCGACCAUGACCUGGA [hsa-mir-619] | -0.783 | 0.401 | 0.0618 | 0.578 | 0.721
37 | GUUGCUUAGAUUACAUGUAAC [hsa-mir-890] | -0.226 | -0.632 | -0.214 | -0.579 | 0.419

Reference: the supplement of paper PMC11865577
